Patent publication US20220411483A1 (Chugai, published 2022)
Residue numbers refer to the chain shown, from its start.

T1: FcγRIIa R type extracellular domain with C-terminal His tag (human, UniProt P12318 34-217)
T1 construct: extracellular domain; also called FcgRIIaR
T1 sequence (looked up): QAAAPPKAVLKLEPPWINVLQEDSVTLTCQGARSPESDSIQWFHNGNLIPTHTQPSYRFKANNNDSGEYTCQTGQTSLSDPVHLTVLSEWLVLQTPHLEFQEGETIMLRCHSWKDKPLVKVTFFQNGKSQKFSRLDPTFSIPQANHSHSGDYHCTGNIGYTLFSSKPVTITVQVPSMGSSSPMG

T2: FcγRIIb extracellular domain with C-terminal His tag (human, UniProt P31994 43-217)
T2 construct: extracellular domain; also called FcgRIIb; not shown: His tag at the C terminus
T2 sequence (looked up): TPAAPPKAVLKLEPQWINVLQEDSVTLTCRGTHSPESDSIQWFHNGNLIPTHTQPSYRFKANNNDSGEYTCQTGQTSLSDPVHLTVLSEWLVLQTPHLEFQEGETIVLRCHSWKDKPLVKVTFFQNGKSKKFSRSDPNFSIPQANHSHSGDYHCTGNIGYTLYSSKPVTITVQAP

T3: FcγRIIa R type extracellular domain with C-terminal His tag (human, UniProt P12318 34-217)
T3 construct: extracellular domain; also called FcgRIIaR; not shown: His tag at the C terminus
T3 sequence (looked up): T1 sequence (looked up)

T4: FcγRIIa H type extracellular domain with C-terminal His tag (human, UniProt P12318 34-217)
T4 construct: extracellular domain; also called FcgRIIaH; not shown: His tag at the C terminus
T4 sequence (looked up): T1 sequence (looked up) with R134H

B1: IL6R-2B253/IL6R-L (antibody, human IgG1, kappa, name in EU numbering)
heavy: QVQLQESGPGLVKPSETLSLTCAVSGHSISHDHAWSWVRQPPGEGLEWIGFISYSGITNYNPSLQGRVTISRDNSKNTLYLQMNSLRAEDTAVYYCARSLARTTAMDYWGEGTLVTVSSASTKGPSVFPLAPSSKSTSGGTAALGCLVKDYFPEPVTVSWNSGALTSGVHTFPAVLQSSGLYSLSSVVTVPSSSLGTQTYICNVNHKPSNTKVDKKVEPKSCDKTHTCPPCPAPDLLGGDSVFLFPPKPKDTLMISRTPEVTCVVVDVSHEDPEVKFNWYVDGVEVHNAKTKPREEQYNSTYRVVSVLTVLHQDWLNGKEYKCKMSNKALPAPIEKTISKAKGQPREPQVYTLPPSRDELTKNQVSLTCLVKGFYPSDIAVEWESNGQPENNYKTTPPVLDSDGSFFLYSKLTVDKSRWQQGNVFSCSVMHEALHNHYTQESLSLSP
light: not shown
notes: IgG1; alterations on IL6R-B3, EU numbering
B2: IL6R-BP085/IL6R-L (antibody, human IgG1, kappa, name in EU numbering)
heavy: B1 heavy with D235E, G239D, M325V, A332K
light: not shown
notes: as for B1
B3: IL6R-BP132/IL6R-L (antibody, human IgG1, kappa, name in EU numbering)
heavy: B1 heavy with M325V, K328A, A332K
light: not shown
notes: as for B1
B4: IL6R-BP488/IL6R-L (antibody, human IgG1, kappa, name in EU numbering)
heavy: B1 heavy with G239D, V266I, S269A, H270E, P273G, Y298D, M325V, A332R
light: not shown
notes: human IgG1
B5: IL6R-BP487/IL6R-L (antibody, human IgG1, kappa, name in EU numbering)
heavy: B1 heavy with G239D, V266I, S269A, H270E, P273G, M325V, A332R, P398M
light: not shown
notes: human IgG1
B6: IL6R-BP489/IL6R-L (antibody, human IgG1, kappa, name in EU numbering)
heavy: B1 heavy with G239D, V266I, S269A, H270E, P273G, Y298D, M325V, A332R, P398M
light: not shown
notes: human IgG1
B7: IL6R-BP491/IL6R-L (antibody, human IgG1, kappa, name in EU numbering)
heavy: B1 heavy with D235E, G239D, V266I, S269A, H270E, P273G, Y298D, M325V, A332R
light: not shown
notes: human IgG1
B8: IL6R-BP496/IL6R-L (antibody, human IgG1, kappa, name in EU numbering)
heavy: B1 heavy with G239D, V266I, S269A, H270E, P273G, Y298D, M325V
light: not shown
notes: human IgG1
B9: IL6R-BP497/IL6R-L (antibody, human IgG1, kappa, name in EU numbering)
heavy: B1 heavy with G239D, V266I, S269A, H270E, P273G, M325V, A329G, A332R
light: not shown
notes: human IgG1
B10: IL6R-BP498/IL6R-L (antibody, human IgG1, kappa, name in EU numbering)
heavy: B1 heavy with G239D, V266I, S269A, H270E, P273G, M325V, A332R, P398L
light: not shown
notes: human IgG1
B11: IL6R-BP499/IL6R-L (antibody, human IgG1, kappa, name in EU numbering)
heavy: B1 heavy with G239D, V266I, S269A, H270E, P273G, Y298D, M325V, A332R, P398L
light: not shown
notes: human IgG1
B12: IL6R-BP502/IL6R-L (antibody, human IgG1, kappa, name in EU numbering)
heavy: B1 heavy with G239D, V266I, S269A, H270E, P273G, Y298D, M325V, A329G, A332R
light: not shown
notes: human IgG1
B13: IL6R-BP503/IL6R-L (antibody, human IgG1, kappa, name in EU numbering)
heavy: B1 heavy with G239D, V266I, S269A, H270E, P273G, Y298D, M325V, A329G, A332R, P398M
light: not shown
notes: human IgG1
B14: IL6R-BP511/IL6R-L (antibody, human IgG1, kappa, name in EU numbering)
heavy: B1 heavy with D235E, G239D, V266I, S269A, H270E, P273G, E274P, Y298D, M325V, A332R
light: not shown
notes: human IgG1
B15: IL6R-BP533/IL6R-L (antibody, human IgG1, kappa, name in EU numbering)
heavy: B1 heavy with G239D, V266I, S269G, H270E, P273G, Y298D, M325V, A332R, P398L
light: not shown
notes: human IgG1
B16: IL6R-BP536/IL6R-L (antibody, human IgG1, kappa, name in EU numbering)
heavy: B1 heavy with G239D, V266I, H270E, P273G, Y298D, M325V, A329G, A332R, P398M
light: not shown
notes: human IgG1
B17: IL6R-BP538/IL6R-L (antibody, human IgG1, kappa, name in EU numbering)
heavy: B1 heavy with D235E, G239D, V266I, H270E, P273G, M325V, A332R
light: not shown
notes: human IgG1
B18: IL6R-BP539/IL6R-L (antibody, human IgG1, kappa, name in EU numbering)
heavy: B1 heavy with D235E, G239D, V266I, S269G, H270E, P273G, E274P, Y298D, M325V, A332R
light: not shown
notes: human IgG1
B19: IL6R-BP540/IL6R-L (antibody, human IgG1, kappa, name in EU numbering)
heavy: B1 heavy with D235E, G239D, V266I, H270E, P273G, E274P, Y298D, M325V, A332R
light: not shown
notes: human IgG1
B20: IL6R-BP550/IL6R-L (antibody, human IgG1, kappa, name in EU numbering)
heavy: B1 heavy with D235E, G239D, V266I, S269G, H270E, P273G, E274D, Y298D, M325V, A332R
light: not shown
notes: human IgG1
B21: IL6R-BP551/IL6R-L (antibody, human IgG1, kappa, name in EU numbering)
heavy: B1 heavy with D235E, G239D, V266I, H270E, P273G, E274D, Y298D, M325V, A332R
light: not shown
notes: human IgG1
B22: IL6R-BP556/IL6R-L (antibody, human IgG1, kappa, name in EU numbering)
heavy: B1 heavy with D235E, G239D, V266I, S269G, H270E, P273G, Y298D, M325V, A332R
light: not shown
notes: human IgG1
B23: IL6R-BP563/IL6R-L (antibody, human IgG1, kappa, name in EU numbering)
heavy: B1 heavy with G239D, H270E, P273G, E274D, Y298D, M325V, A332R
light: not shown
notes: human IgG1
B24: IL6R-BP565/IL6R-L (antibody, human IgG1, kappa, name in EU numbering)
heavy: B1 heavy with G239D, S269A, H270E, P273G, Y298D, M325V, A332R
light: not shown
notes: human IgG1
B25: IL6R-BP438/IL6R-L (antibody, human IgG1, kappa, name in EU numbering)
heavy: B1 heavy with G239D, S269A, H270E, P273G, M325V, A332R, I334T
light: not shown
notes: human IgG1
B26: IL6R-BP510/IL6R-L (antibody, human IgG1, kappa, name in EU numbering)
heavy: B1 heavy with D235E, G239D, V266I, S269A, H270E, P273G, E274P, M325V, A332R
light: not shown
notes: human IgG1
B27: IL6R-BP554/IL6R-L (antibody, human IgG1, kappa, name in EU numbering)
heavy: B1 heavy with D235E, G239D, V266I, S269A, H270E, P273G, E274D, M325V, A332R
light: not shown
notes: human IgG1
B28: IL6R-BP558/IL6R-L (antibody, human IgG1, kappa, name in EU numbering)
heavy: B1 heavy with D235E, G239D, V266I, S269G, H270E, P273G, E274D, M325V, A332R
light: not shown
notes: human IgG1

biological target: T1, FcγRIIa R type extracellular domain …; test: SPR (Biacore), FcgR as analyte

Binder | Kd
B1 | 5000 nM
B2 | 4200 nM
B3 | 8000 nM

biological target: T2, FcγRIIb extracellular domain with …; test: SPR; KD of IL6R-B3/IL6R-L divided by KD of variant

Binder | Relative FcgRIIb-binding Activity
B4 | 1670
B5 | 2690
B6 | 3090
B7 | 1020
B8 | 168
B9 | 761
B10 | 1870
B11 | 2120
B12 | 837
B13 | 1810
B14 | 888
B15 | 754
B16 | 1040
B17 | 585
B18 | 368
B19 | 539
B20 | 405
B21 | 481
B22 | 369
B23 | 196
B24 | 563

biological target: T3, FcγRIIa R type extracellular domain …; test: SPR; KD of IL6R-B3/IL6R-L divided by KD of variant

Binder | Relative FcgRIIaR-binding Activity
B4 | 14.6
B5 | 27.8
B6 | 25.2
B7 | 9.2
B8 | 2.3
B9 | 12.6
B10 | 21.3
B11 | 21.9
B12 | 9.9
B13 | 19
B14 | 6.1
B15 | 9
B16 | 13.7
B17 | 5.3
B18 | 3.3
B19 | 5.1
B20 | 3.2
B21 | 4.4
B22 | 3.6
B23 | 2.4
B24 | 4.7

biological target: T4, FcγRIIa H type extracellular domain …; test: SPR, antibody captured, FcgR analyte

Binder | Kd
B4 | 1600 nM
B25 | 1600 nM
B5 | 840 nM
B6 | 870 nM
B7 | 2200 nM
B8 | 3700 nM
B9 | 960 nM
B10 | 930 nM
B11 | 1000 nM
B12 | 1300 nM
B13 | 860 nM
B26 | 4000 nM
B14 | 4300 nM
B15 | 2600 nM
B16 | 1300 nM
B17 | 3000 nM
B18 | 5600 nM
B19 | 4600 nM
B20 | 5000 nM
B21 | 2800 nM
B27 | 2300 nM
B22 | 5800 nM
B28 | 4900 nM
B23 | 8300 nM
B24 | 4700 nM

biological target: T2, FcγRIIb extracellular domain with …; test: SPR, antibody captured, FcgR analyte

Binder | Kd
B4 | 1.9 nM
B5 | 1.2 nM
B6 | 1 nM
B7 | 3 nM
B8 | 18 nM
B9 | 4.1 nM
B10 | 1.7 nM
B11 | 1.5 nM
B12 | 3.7 nM
B13 | 1.7 nM
B26 | 3.8 nM
B14 | 3.5 nM
B15 | 4.1 nM
B16 | 3 nM
B17 | 5.3 nM
B18 | 8.4 nM
B19 | 5.7 nM
B20 | 7.6 nM
B21 | 6.4 nM
B22 | 8.4 nM
B28 | 9 nM
B23 | 16 nM
B24 | 5.5 nM

biological target: T3, FcγRIIa R type extracellular domain …; test: SPR, antibody captured, FcgR analyte

Binder | Kd
B4 | 74 nM
B25 | 180 nM
B5 | 39 nM
B6 | 43 nM
B7 | 120 nM
B8 | 470 nM
B9 | 85 nM
B10 | 51 nM
B11 | 49 nM
B12 | 110 nM
B13 | 57 nM
B14 | 180 nM
B15 | 120 nM
B16 | 79 nM
B17 | 200 nM
B18 | 330 nM
B19 | 210 nM
B20 | 340 nM
B21 | 250 nM
B22 | 300 nM
B28 | 330 nM
B23 | 460 nM
B24 | 230 nM

biological target: T5, FcγRIa extracellular domain with C-terminal His tag (human, UniProt P12314 16-292); test: SPR, antibody captured, FcgR analyte
T5 construct: also called FcgRIa; CD64; not shown: His tag at the C terminus
T5 sequence (P12314 16-292): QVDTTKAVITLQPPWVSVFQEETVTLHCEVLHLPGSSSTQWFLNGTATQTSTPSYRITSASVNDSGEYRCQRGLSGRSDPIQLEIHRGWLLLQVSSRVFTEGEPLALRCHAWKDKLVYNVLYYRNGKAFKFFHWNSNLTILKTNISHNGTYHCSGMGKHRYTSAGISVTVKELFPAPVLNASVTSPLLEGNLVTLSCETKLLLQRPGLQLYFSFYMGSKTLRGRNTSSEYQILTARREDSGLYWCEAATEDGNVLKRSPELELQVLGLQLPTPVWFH

Binder | Kd
B4 | 2.2 nM
B5 | 1.2 nM
B6 | 1.3 nM
B7 | 5.3 nM
B8 | 1.2 nM
B9 | 2.1 nM
B10 | 1.3 nM
B11 | 1.2 nM
B12 | 2.1 nM
B13 | 1.2 nM
B26 | 6 nM
B14 | 6 nM
B15 | 7.7 nM
B16 | 8.9 nM
B17 | 55 nM
B18 | 64 nM
B19 | 96 nM
B20 | 25 nM
B21 | 32 nM
B27 | 8 nM
B22 | 43 nM
B23 | 12 nM
B24 | 2.4 nM
